# Laboratory results as given in patent publication US9845340B2, “Peptides that specifically bind HGF receptor (cMet) and uses thereof” (Dyax Corp., priority 2003, dated 2017).
# Experiments:
# [1] = target: T1, 3T3 cells that over-express human cMet (Homo sapiens, UniProt P08581); assay: Whole cell ELISA of peptide-displaying phage; format: cell-based; details: phage isolate; 3T3 cells expressing human cMet vs. non-expressing 3T3 cells
# T1 construct: expressed in transfected cells; host or cells: 3T3 cells
# In short: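 3T3 cells over-expressing human cMet seeded 10^5/well, pelleted and fixed with 0.1% glutaraldehyde 12 min at 37 °C. Blocked peptide-displaying phage bound 1 h at room temperature; after PBST wash, bound phage detected with HRP-conjugated anti-M13 antibody.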
# cMet-Fc fusion protein = cMet-Fc fusion protein (Homo sapiens, UniProt P08581); assay: Protein phage ELISA: peptide-displaying phage binding to soluble cMet-Fc versus TRAIL-Fc; details: phage isolate; cMet-Fc vs. TRAIL-Fc
# In short: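 Plates coated with 0.5 μg/mL cMet-Fc or, as background, TRAIL-Fc, then blocked with 3% BSA in PBST. Peptide-displaying phage bound 2 h at room temperature. Detection with HRP-anti-M13 antibody.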
# T1 sequence (P08581 25-1390): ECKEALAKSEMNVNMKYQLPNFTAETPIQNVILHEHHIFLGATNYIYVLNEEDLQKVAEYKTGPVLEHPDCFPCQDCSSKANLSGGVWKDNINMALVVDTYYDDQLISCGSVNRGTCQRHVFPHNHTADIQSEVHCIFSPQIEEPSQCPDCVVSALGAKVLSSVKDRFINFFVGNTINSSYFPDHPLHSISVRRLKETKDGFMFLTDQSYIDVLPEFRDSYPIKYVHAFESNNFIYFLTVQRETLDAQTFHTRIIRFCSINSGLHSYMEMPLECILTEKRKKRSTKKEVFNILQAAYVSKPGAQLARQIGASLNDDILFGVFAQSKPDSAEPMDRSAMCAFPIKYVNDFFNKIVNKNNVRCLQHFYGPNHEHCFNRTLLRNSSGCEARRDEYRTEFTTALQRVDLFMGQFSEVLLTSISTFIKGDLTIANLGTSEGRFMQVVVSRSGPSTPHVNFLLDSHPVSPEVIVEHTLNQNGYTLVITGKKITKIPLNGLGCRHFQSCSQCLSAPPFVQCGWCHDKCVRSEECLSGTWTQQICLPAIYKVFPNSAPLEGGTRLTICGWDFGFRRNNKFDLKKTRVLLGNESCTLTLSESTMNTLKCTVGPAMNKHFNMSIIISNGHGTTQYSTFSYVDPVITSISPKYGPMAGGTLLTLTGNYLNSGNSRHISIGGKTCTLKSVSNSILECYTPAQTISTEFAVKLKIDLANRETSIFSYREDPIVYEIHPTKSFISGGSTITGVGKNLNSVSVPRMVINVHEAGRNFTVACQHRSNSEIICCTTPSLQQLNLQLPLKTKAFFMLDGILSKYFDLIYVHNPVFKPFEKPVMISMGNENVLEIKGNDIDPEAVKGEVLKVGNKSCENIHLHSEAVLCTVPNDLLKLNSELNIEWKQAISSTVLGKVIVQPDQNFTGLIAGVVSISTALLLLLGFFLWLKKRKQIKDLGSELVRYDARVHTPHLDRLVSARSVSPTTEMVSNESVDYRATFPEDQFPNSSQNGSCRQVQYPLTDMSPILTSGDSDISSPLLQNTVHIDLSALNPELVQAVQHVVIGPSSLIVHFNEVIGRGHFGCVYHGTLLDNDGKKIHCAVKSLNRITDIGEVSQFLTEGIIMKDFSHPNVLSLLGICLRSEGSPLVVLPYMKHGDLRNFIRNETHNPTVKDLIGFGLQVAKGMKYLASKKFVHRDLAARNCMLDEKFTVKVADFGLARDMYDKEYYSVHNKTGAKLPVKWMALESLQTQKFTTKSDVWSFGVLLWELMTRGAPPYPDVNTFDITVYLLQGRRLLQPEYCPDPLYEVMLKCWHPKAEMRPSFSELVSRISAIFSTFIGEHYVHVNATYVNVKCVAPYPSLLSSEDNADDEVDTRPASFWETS
# cMet-Fc fusion protein, sequence (P08581 25-307 limits assumed): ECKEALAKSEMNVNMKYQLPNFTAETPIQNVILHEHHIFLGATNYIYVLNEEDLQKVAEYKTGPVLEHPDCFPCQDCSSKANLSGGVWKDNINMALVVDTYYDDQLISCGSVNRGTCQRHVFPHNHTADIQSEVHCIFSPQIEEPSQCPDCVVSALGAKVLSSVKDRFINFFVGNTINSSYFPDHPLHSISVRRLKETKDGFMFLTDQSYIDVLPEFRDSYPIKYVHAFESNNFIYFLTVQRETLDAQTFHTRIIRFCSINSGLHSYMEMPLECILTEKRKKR
# cMet-Fc fusion protein, sequence (P08581 with tags, fused parts or gaps limits assumed): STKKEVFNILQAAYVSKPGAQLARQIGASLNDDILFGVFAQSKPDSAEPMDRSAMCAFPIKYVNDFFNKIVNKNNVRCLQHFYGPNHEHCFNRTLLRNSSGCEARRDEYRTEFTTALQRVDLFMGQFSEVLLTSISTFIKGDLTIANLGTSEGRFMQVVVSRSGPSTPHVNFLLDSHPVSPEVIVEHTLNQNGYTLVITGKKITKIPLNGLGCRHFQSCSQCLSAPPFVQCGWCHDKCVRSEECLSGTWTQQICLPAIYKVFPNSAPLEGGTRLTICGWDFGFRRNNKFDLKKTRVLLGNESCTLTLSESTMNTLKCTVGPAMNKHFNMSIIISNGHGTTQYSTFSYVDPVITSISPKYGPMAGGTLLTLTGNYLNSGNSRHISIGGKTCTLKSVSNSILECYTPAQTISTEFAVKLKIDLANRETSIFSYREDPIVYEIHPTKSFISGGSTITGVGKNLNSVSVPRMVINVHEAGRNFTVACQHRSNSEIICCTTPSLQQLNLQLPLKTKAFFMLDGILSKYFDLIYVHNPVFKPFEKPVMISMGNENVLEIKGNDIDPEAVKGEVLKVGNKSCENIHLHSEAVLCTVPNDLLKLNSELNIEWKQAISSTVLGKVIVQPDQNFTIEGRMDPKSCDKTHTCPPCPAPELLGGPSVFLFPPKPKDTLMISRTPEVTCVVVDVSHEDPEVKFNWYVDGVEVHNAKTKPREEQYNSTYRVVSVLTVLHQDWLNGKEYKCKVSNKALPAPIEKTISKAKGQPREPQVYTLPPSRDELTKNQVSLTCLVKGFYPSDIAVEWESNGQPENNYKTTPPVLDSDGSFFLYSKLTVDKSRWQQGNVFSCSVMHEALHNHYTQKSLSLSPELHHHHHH
Compound,WC ELISA [1],Protein ELISA (cMet-Fc fusion protein)
GSLYRCLGEASPTPPCAYEAP (Synthetically generated cMet-binding peptide sequence) [SEQ ID NO: 380],1.37 fold over background,4.0 fold over background
AGQAVCEWGPFWCQMQGT (Synthetically generated cMet-binding peptide sequence) [SEQ ID NO: 031],1.30 fold over background,3.2 fold over background
AGDGWCMAWPEICEWLGT (Synthetically generated cMet-binding peptide sequence) [SEQ ID NO: 014],1.33 fold over background,4.8 fold over background
AGTLSCSEEYKSCQLQGT (Synthetically generated cMet-binding peptide sequence) [SEQ ID NO: 027],1.30 fold over background,3.6 fold over background
AQLFQYLWHDDPQGAFFQLSMW (Synthetically generated cMet-binding peptide sequence) [SEQ ID NO: 483],1.23 fold over background,3.1 fold over background
GDSYNCSWDSKTFEVTCLYADP (Synthetically generated cMet-binding peptide sequence) [SEQ ID NO: 393],1.20 fold over background,8.4 fold over background
AGETVCYWLNGWFCVDDGT (Synthetically generated cMet-binding peptide sequence) [SEQ ID NO: 073],1.10 fold over background,7.8 fold over background
AQFPLEFDVPNFSYHWLVSFNP (Synthetically generated cMet-binding peptide sequence) [SEQ ID NO: 460],1.27 fold over background,5.6 fold over background
AGVNSCLGPPTFECYQMGT (Synthetically generated cMet-binding peptide sequence) [SEQ ID NO: 076],1.20 fold over background,5.7 fold over background
CSCC[C@H](NC(=O)[C@H](Cc1ccccc1)NC(=O)[C@H](CCC(N)=O)NC(=O)[C@@H](NC(=O)[C@@H]1CCCN1C(=O)[C@H](CCSC)NC(=O)[C@H](Cc1c[nH]c2ccccc12)NC(=O)[C@@H](NC(=O)[C@H](CC(=O)O)NC(=O)[C@H](CCSC)NC(=O)[C@H](CCC(N)=O)NC(=O)[C@H](CCCNC(=N)N)NC(=O)[C@H](CCC(N)=O)NC(=O)[C@@H](NC(=O)[C@H](CO)NC(=O)[C@H](Cc1c[nH]cn1)NC(=O)[C@H](CCC(N)=O)NC(=O)[C@H](C)NC(C)=O)C(C)C)C(C)C)C(C)C)C(=O)N[C@@H](C)C(=O)NCC(=O)N[C@@H](Cc1ccccc1)C(=O)N[C@H](C(=O)NCC(=O)NCC(=O)NCC(=O)N[C@@H](CCCCNC(=O)c1ccc2c(c1)C(=O)OC21c2ccc(O)cc2Oc2cc(O)ccc21)C(N)=O)[C@@H](C)O [SEQ ID NO: 467],1.30 fold over background,3.9 fold over background
AQGIAWQLEWSYMPQSPPSFDR (Synthetically generated cMet-binding peptide sequence) [SEQ ID NO: 495],1.17 fold over background,4.5 fold over background
CSCC[C@H](NC(=O)[C@@H]1CCCN1C(=O)[C@H](CO)NC(=O)CNC(=O)[C@@H](NC(=O)[C@H](CCC(N)=O)NC(=O)[C@H](C)NC(C)=O)C(C)C)C(=O)N[C@@H](CC(C)C)C(=O)N1CCC[C@H]1C(=O)N[C@@H](CO)C(=O)N[C@@H](Cc1c[nH]c2ccccc12)C(=O)N[C@@H](Cc1ccccc1)C(=O)N[C@@H](CO)C(=O)N[C@@H](Cc1ccccc1)C(=O)N[C@@H](CCC(=O)O)C(=O)N[C@@H](C)C(=O)N[C@@H](CC(N)=O)C(=O)N[C@@H](Cc1c[nH]c2ccccc12)C(=O)N[C@@H](CO)C(=O)N[C@@H](CO)C(=O)NCC(=O)NCC(=O)NCC(=O)N[C@@H](CCCCNC(=O)c1ccc2c(c1)C(=O)OC21c2ccc(O)cc2Oc2cc(O)ccc21)C(N)=O [SEQ ID NO: 456],1.30 fold over background,7.0 fold over background
AGYYGCKGPPTFECQWMGT (Synthetically generated cMet-binding peptide sequence) [SEQ ID NO: 049],1.33 fold over background,13.8 fold over background
AQWGAVDNDWYDWEMEQIWMFE (Synthetically generated cMet-binding peptide sequence) [SEQ ID NO: 491],1.23 fold over background,3.2 fold over background
AGGHWCLELKHLCPPYGT (Synthetically generated cMet-binding peptide sequence) [SEQ ID NO: 044],1.23 fold over background,4.1 fold over background
GDLLVCKFDDKFWTETCEWADP (Synthetically generated cMet-binding peptide sequence) [SEQ ID NO: 392],1.47 fold over background,23.7 fold over background
AGGNWCSFYEELCEWLGT (Synthetically generated cMet-binding peptide sequence) [SEQ ID NO: 043],1.37 fold over background,4.2 fold over background
AGHGTCRGWPTFECIYFGT (Synthetically generated cMet-binding peptide sequence) [SEQ ID NO: 064],1.40 fold over background,6.0 fold over background
AGTIRCNLAMMVCMFEGT (Synthetically generated cMet-binding peptide sequence) [SEQ ID NO: 028],1.43 fold over background,3.6 fold over background
AQMGHHWDVQWDYKLFHVARGD (Synthetically generated cMet-binding peptide sequence) [SEQ ID NO: 473],1.23 fold over background,3.7 fold over background
GSSQICAVYLDDTHNCERHAP (Synthetically generated cMet-binding peptide sequence) [SEQ ID NO: 373],1.30 fold over background,4.0 fold over background
AQGGRYPFYDTDWFKWEMYVL (Synthetically generated cMet-binding peptide sequence) [SEQ ID NO: 496],1.30 fold over background,3.8 fold over background
GSSTICPGTACVDHAP (Synthetically generated cMet-binding peptide sequence) [SEQ ID NO: 008],1.27 fold over background,3.2 fold over background
AGPLFCFEWPSLCHWGGT (Synthetically generated cMet-binding peptide sequence) [SEQ ID NO: 033],1.43 fold over background,3.8 fold over background
CC[C@H](C)[C@H](NC(=O)[C@H](CO)NC(=O)CNC(=O)[C@H](C)NC(C)=O)C(=O)N[C@@H](CCC(N)=O)C(=O)N[C@H]1CSSC[C@@H](C(=O)N[C@@H](C)C(=O)N[C@@H](CCSC)C(=O)N[C@@H](Cc2ccc(O)cc2)C(=O)NCC(=O)N[C@H](C(=O)NCC(=O)NCC(=O)NCC(=O)N[C@@H](CCCCNC(=O)c2ccc3c(c2)C(=O)OC32c3ccc(O)cc3Oc3cc(O)ccc32)C(N)=O)[C@@H](C)O)NC(=O)[C@H](CO)NC(=O)[C@H](Cc2ccccc2)NC(=O)[C@H](Cc2c[nH]c3ccccc23)NC(=O)[C@@H]2CCCN2C(=O)[C@@H]2CCCN2C(=O)CNC(=O)[C@H](CCCCN)NC1=O [SEQ ID NO: 048],1.47 fold over background,15.9 fold over background
AGETTCLGWPTFVCVDYGT (Synthetically generated cMet-binding peptide sequence) [SEQ ID NO: 063],1.27 fold over background,5.3 fold over background
CC[C@H](C)[C@H](NC(=O)[C@H](Cc1c[nH]c2ccccc12)NC(=O)[C@H](Cc1c[nH]cn1)NC(=O)CNC(=O)[C@H](C)NC(C)=O)C(=O)N[C@H]1CSSC[C@@H](C(=O)N[C@@H](CCC(N)=O)C(=O)N[C@@H](Cc2c[nH]c3ccccc23)C(=O)N[C@@H](Cc2c[nH]cn2)C(=O)NCC(=O)N[C@H](C(=O)NCC(=O)NCC(=O)NCC(=O)N[C@@H](CCCCNC(=O)c2ccc3c(c2)C(=O)OC32c3ccc(O)cc3Oc3cc(O)ccc32)C(N)=O)[C@@H](C)O)NC(=O)[C@H](CO)NC(=O)[C@H](Cc2ccccc2)NC(=O)[C@H]([C@@H](C)O)NC(=O)[C@@H]2CCCN2C(=O)[C@@H]2CCCN2C(=O)CNC(=O)[C@H](C(C)C)NC1=O [SEQ ID NO: 071],1.40 fold over background,13.5 fold over background
GSEFECTGWPEFRCYEYAP (Synthetically generated cMet-binding peptide sequence) [SEQ ID NO: 100],1.20 fold over background,8.4 fold over background
